These results are taken from patent US20260275288A1 (University of Texas, published 2026).

The target in assay [1] is T1, TCR/FcR #2 CD16 extracellular domain (Fc binding domain) comprising polypeptide: WT high affinity CD16 … (human, UniProt P08637 17-254).
T1 construct: these cells also carry endogenous CD16; also called TCR/FcR #2 transduced NK cells; uTNK15 and TCR/FcR #2 transduced NK cells
The experiment in a line: flow cytometry; 1 h, 37 °C, complete media, washed (FIGS. 38C-38D).

Assay [2] addresses T2, non-transduced (NT) cord blood derived NK cells (endogenous wild type CD16; no CD3/TCR) (human, UniProt P08637 17-254).
T2 construct: whole, on cells; A control cell, not a single protein; for the CD3 engagers the cells are the control without CD3; also called NT NK cells; NT NK
Described as above.

T2 sequence (P08637 17-254): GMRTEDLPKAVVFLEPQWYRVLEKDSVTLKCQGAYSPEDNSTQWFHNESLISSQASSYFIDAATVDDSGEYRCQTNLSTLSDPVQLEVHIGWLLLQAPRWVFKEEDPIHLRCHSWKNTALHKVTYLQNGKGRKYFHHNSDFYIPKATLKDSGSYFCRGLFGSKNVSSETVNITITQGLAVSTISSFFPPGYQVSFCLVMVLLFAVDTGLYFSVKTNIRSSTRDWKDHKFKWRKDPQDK
T1 sequence (P08637 17-254 F176V limits assumed, form in doubt): as the sequence (P08637 17-254) above, with F160V counted along it

B1: Tafasitamab (antibody)
chain 1: EVQLVESGGGLVKPGGSLKLSCAASGYTFTSYVMHWVRQAPGKGLEWIGYINPYNDGTKYNEKFQGRVTISSDKSISTAYMELSSLRSEDTAMYYCARGTYYYGTRVFDYWGQGTLVTVSSASTKGPSVFPLAPSSKSTSGGTAALGCLVKDYFPEPVTVSWNSGALTSGVHTFPAVLQSSGLYSLSSVVTVPSSSLGTQTYICNVNHKPSNTKVDKKVEPKSCDKTHTCPPCPAPELLGGPDVFLFPPKPKDTLMISRTPEVTCVVVDVSHEDPEVQFNWYVDGVEVHNAKTKPREEQFNSTFRVVSVLTVVHQDWLNGKEYKCKVSNKALPAPEEKTISKTKGQPREPQVYTLPPSREEMTKNQVSLTCLVKGFYPSDIAVEWESNGQPENNYKTTPPMLDSDGSFFLYSKLTVDKSRWQQGNVFSCSVMHEALHNHYTQKSLSLSPGK
chain 2: DIVMTQSPATLSLSPGERATLSCRSSKSLQNVNGNTYLYWFQQKPGQSPQLLIYRMSNLNSGVPDRFSGSGSGTEFTLTISSLEPEDFAVYYCMQHLEYPITFGAGTKLEIKRTVAAPSVFIFPPSDEQLKSGTASVVCLLNNFYPREAKVQWKVDNALQSGNSQESVTEQDSKDSTYSLSSTLTLSKADYEKHKVYACEVTHQGLSSPVTKSFNRGEC
For the molecule B1, the “binding percentage (average across 3 trials)” value was more than 80% in assay [1] and approximately 70% in assay [2].
